According to patent US20160244745A1 (published 2016):

What was measured:
Test in all cases: yeast display titration; KD, yeast
Rabbit IgG = target: Rabbit IgG
Lysozyme = target: Lysozyme
Goat IgG = target: Goat IgG

For KFWATVHSVHGYFEVPVYAETLDEALELAFGQYGNALGYVTRVRP (designed binder) [Rabbit IgG 3.2.3], the Kd (Rabbit IgG) was 1.5 nM.

KFWATVFSYGNLFEVPVYAETLDEALELAEWQYSGAYEYVTRVRP (designed binder) [Lysozyme A0.3.2] showed a Kd (Lysozyme) of ~1550 nM.

In the case of KFWATVYDYDADYYFEVPVYAETLDEALELAVWRYYSNHSDYLVTRVRP (designed binder) [Goat IgG 2.2.1], the Kd (Goat IgG) is reported as 0.2 nM.
